± gives the uncertainty stated by the source.
Assay: self-splicing fitness, log relative to wild type (ln ratio); higher = more splicing; Tetrahymena group I intron in knt gene, E. coli kanamycin selection, DiMSum; sequences stand for … in CUCUCU…GGAGGGAAAAGUUAUCAGGCAUGCACCUGGUAGCUAGUCUUUAAACCAAUAGAUUGCAUCGGUUUAAAAGGCAAGACCGUCAAAUUGCGGGAAAGGGGUCAACAGCCGUUCAGUACCAAGUCUCAGGGGAAACUUUGAGAUGGCCUUGCAAAGGGUAUGGUAAUAAGCUGACGGACAUGGUCCUAACCACGCAGCCAAGUCCUAAGUCAACAGAUCUUCUGUUGAUAUGGAUGCAGUUCACAGACUAAAUGUCGGUCGGGGAAGAUGUAUUCUUCUCAUAAGAUAUAGUCGGACCUCUCCUUAAUGGGAGCUAGCGGAUGAAGUGAUGCAACACUGGAGCCGCUGGGAACUAAUUUGUAUGCGAAAGUAUAUUGAUUAGUUUUGGAGUACUCGUGGUCG
How it was run: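 Pooled colonies went to amplicon sequencing on an Illumina HiSeq 2500 after six replicate transformations. The plates were LB agar with 100 μg/mL carbenicillin, 50 μM IPTG and 0.2% rhamnose, with or without 25 μg/mL kanamycin, incubated overnight at 37°C or 30°C. The E. coli BL21(DE3) library had all eight P1ex-region intron nucleotides randomised, the intron placed in the knt kanamycin-resistance gene on pET-22b(+). DiMSum fitness is the error-weighted combination of replicate fold changes, kanamycin against none, normalised to wild type.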

Sequence | self-splicing fitness (ln) (30 °C) | self-splicing fitness (ln) (37 °C)
GUCGAGCAAUAUUACGGGAG | -3.67 ± 0.21 | -2.4 ± 0.2
GGCUAGCAAUAUUACGCCGU | -1.49 ± 0.11 | -0.833 ± 0.17
UGUGAGCAAUAUUACGUGAC | -4.58 ± 0.32 | -3.08 ± 0.25
AAAUAGCAAUAUUACGAGGC | -3.64 ± 0.47 | 
UUGCAGCAAUAUUACGAUCU | -2.34 ± 0.22 | -1.78 ± 0.21
AAACAGCAAUAUUACGAAAG | -2.21 ± 0.13 | -1.57 ± 0.18
UGUAAGCAAUAUUACGCAUC | -3.16 ± 0.31 | -1.74 ± 0.23
UAACAGCAAUAUUACGCUGG | -3.29 ± 0.17 | -2.42 ± 0.21
CAUCAGCAAUAUUACGUGCA | -3.14 ± 0.21 | -1.97 ± 0.2
AAGUAGCAAUAUUACGGGAG | -4.01 ± 0.27 | -2.82 ± 0.23
CCUUAGCAAUAUUACGGAUC | -3.45 ± 0.47 | -3.6 ± 0.34
AGGCAGCAAUAUUACGGACA | -0.916 ± 0.12 | -0.346 ± 0.13
AAUUAGCAAUAUUACGGGGG | -2.91 ± 0.15 | -2.9 ± 0.27
UUUCAGCAAUAUUACGUAUA | -0.408 ± 0.21 | -0.0411 ± 0.25
UAAGAGCAAUAUUACGAUUG | -1.72 ± 0.11 | -0.83 ± 0.12
GACCAGCAAUAUUACGACUA | -0.158 ± 0.056 | -0.0882 ± 0.062
CGGCAGCAAUAUUACGUGAA | -2.25 ± 0.11 | -1.65 ± 0.15
GAAAAGCAAUAUUACGACAU | -0.184 ± 0.011 | 0.116 ± 0.032
AUGCAGCAAUAUUACGCUCG | -1.89 ± 0.11 | -0.774 ± 0.13
UUUGAGCAAUAUUACGUUAU | -3.92 ± 0.21 | -1.9 ± 0.16
GAGCAGCAAUAUUACGAUAA | -2.23 ± 0.29 | -1.76 ± 0.24
CAGCAGCAAUAUUACGGACU | -2.43 ± 0.21 | -1.41 ± 0.13
UGGUAGCAAUAUUACGCAGA | -2.45 ± 0.16 | -0.684 ± 0.1
UCAGAGCAAUAUUACGGUUG | -3.9 ± 0.31 | -2.35 ± 0.26
ACCAAGCAAUAUUACGUCCU | -0.777 ± 0.058 | 0.0592 ± 0.075
CUGUAGCAAUAUUACGAGAC | -2.77 ± 0.2 | -0.769 ± 0.14

Sequence | self-splicing fitness (ln) (30 °C) | self-splicing fitness (ln) (37 °C)
GCAUAGCAAUAUUACGAAAA |  | 0.492 ± 0.27
CCGUAGCAAUAUUACGAUGU | -4.42 ± 0.33 | -1.79 ± 0.18
CAUAAGCAAUAUUACGACAU | -3.64 ± 0.024 | -2.45 ± 0.037
AACAAGCAAUAUUACGCCCC | -0.645 ± 0.24 | 0.323 ± 0.26
AUCAAGCAAUAUUACGACAC | -1.45 ± 0.079 | -0.324 ± 0.11
UAUCAGCAAUAUUACGCUGC | -2.59 ± 0.35 | -0.822 ± 0.24
GAAGAGCAAUAUUACGAACC | -1.82 ± 0.25 | -1.13 ± 0.29
AUAAAGCAAUAUUACGGACA | -0.148 ± 0.094 | 0.131 ± 0.13
GUAGAGCAAUAUUACGGUUU | -1.75 ± 0.11 | -0.8 ± 0.13
GACGAGCAAUAUUACGCCUG |  | -1.56 ± 0.47
UUCGAGCAAUAUUACGAAAC |  | -1.41 ± 0.43
CUACAGCAAUAUUACGUACG | -0.289 ± 0.088 | 0.18 ± 0.099
UAUGAGCAAUAUUACGCGUU | -4.08 ± 0.36 | -1.79 ± 0.24
UUGGAGCAAUAUUACGUGCU |  | -2.64 ± 0.34
ACUAAGCAAUAUUACGUAUC | -2.91 ± 0.15 | -2.15 ± 0.19
AAAUAGCAAUAUUACGCGGA | -1.9 ± 0.12 | -0.348 ± 0.081
GGAGAGCAAUAUUACGCAGC | -1.26 ± 0.17 | -2.78 ± 0.26
ACGCAGCAAUAUUACGUCCU | -0.15 ± 0.058 | 0.354 ± 0.07
GUUAAGCAAUAUUACGCGCC | -2.44 ± 0.2 | -1.56 ± 0.16
GCUGAGCAAUAUUACGUAGA | -2.41 ± 0.2 | -0.888 ± 0.21
UCCCAGCAAUAUUACGAGUU | -3.85 ± 0.2 | -2.45 ± 0.15
GUGAAGCAAUAUUACGUAUG | -2.38 ± 0.085 | -1.29 ± 0.088
ACUGAGCAAUAUUACGGCGU | -1.07 ± 0.079 | 0.0319 ± 0.097
ACAAAGCAAUAUUACGGUAA | -2.45 ± 0.17 | -1.49 ± 0.13
GCCAAGCAAUAUUACGGUCC | -2.49 ± 0.11 | -0.771 ± 0.11
ACUAAGCAAUAUUACGCGGA | -1.96 ± 0.094 | -0.956 ± 0.083

Sequence | self-splicing fitness (ln) (30 °C) | self-splicing fitness (ln) (37 °C)
CGCCAGCAAUAUUACGGCCU | -0.959 ± 0.061 | 0.409 ± 0.072
AUUGAGCAAUAUUACGGGGA | -2.32 ± 0.24 | -2.49 ± 0.28
UCGGAGCAAUAUUACGAAUU | -2.9 ± 0.26 | -2.69 ± 0.28
UUUCAGCAAUAUUACGUCUG | -3.65 ± 0.22 | -1.87 ± 0.16
GCUUAGCAAUAUUACGCCAC | -1.67 ± 0.32 | -1.17 ± 0.45
AGACAGCAAUAUUACGGUGU | -3.34 ± 0.12 | -2.59 ± 0.12
UCUCAGCAAUAUUACGUAGA | -0.809 ± 0.091 | -0.77 ± 0.13
CGCCAGCAAUAUUACGUACC | -3.78 ± 0.29 | -2.74 ± 0.3
CUAGAGCAAUAUUACGGCAU | -3.75 ± 0.19 | -2.75 ± 0.28
CAUUAGCAAUAUUACGGCGC | -2.01 ± 0.3 | -0.0545 ± 0.24
GAUUAGCAAUAUUACGGAUG | -2.07 ± 0.16 | -0.375 ± 0.15
GCUCAGCAAUAUUACGGAAU | -0.424 ± 0.083 | 0.224 ± 0.12
UAGGAGCAAUAUUACGAAGC | -4.41 ± 0.33 | -1.44 ± 0.26
GGUCAGCAAUAUUACGCUGU | -3.34 ± 0.21 | -1.62 ± 0.18
UAUCAGCAAUAUUACGCACU | -0.0365 ± 0.087 | 0.104 ± 0.094
CCAAAGCAAUAUUACGCUAU | -3.7 ± 0.19 | -2.39 ± 0.23
CACCAGCAAUAUUACGCCAA | -2.95 ± 0.28 | -3.23 ± 0.3
UUUCAGCAAUAUUACGACUA | 0.605 ± 0.12 | 0.612 ± 0.12
CCUUAGCAAUAUUACGCACA | -1.93 ± 0.28 | -1.06 ± 0.21
CUUCAGCAAUAUUACGCACG | -1.02 ± 0.085 | -0.456 ± 0.13
AAUGAGCAAUAUUACGUAUG |  | -2.92 ± 0.28
GAGGAGCAAUAUUACGUACG | -2.21 ± 0.19 | 
CACGAGCAAUAUUACGUCAC | -3.41 ± 0.2 | -3.18 ± 0.37
GUGAAGCAAUAUUACGCUCG | -1.69 ± 0.11 | -0.267 ± 0.13
UGAUAGCAAUAUUACGGACA | -0.237 ± 0.1 | 0.61 ± 0.14
AUCGAGCAAUAUUACGUGCG | -4 ± 0.29 | -1.73 ± 0.13
